# Assays:
# SthK = biological target: T1, SthK (Winmispira thermophila, UniProt G0GA88); assay: single-channel recording in horizontal lipid bilayer; assay type: biochemical; settings: very poor partial agonist; 7 mM cGMP; +100 mV; KCl, pH 7.0
# T1 construct: gene Spith_0644; C-terminally truncated SthK 1-420; 19 extra N-terminal vector residues kept; expressed in E. coli C41(DE3); homotetramer in POPG/MSP1E3 nanodiscs or liposomes
# [1] = biological target: SthK 1-420, cyclic nucleotide-gated potassium channel from Spirochaeta thermophila (Spirochaeta thermophila); assay: negative stain electron microscopy; SthK in lipid nanodiscs (20 ug/mL), uranyl acetate stain, 2D classification
# [2] = biological target: SthK 1-420, cyclic nucleotide-gated potassium channel from Spirochaeta thermophila (Spirochaeta thermophila); assay: cryo-EM structure; SthK in POPG/MSP1E3 lipid nanodiscs; apo, with 2 mM cAMP or with 7 mM cGMP; 20 mM HEPES pH 8.0, 100 mM KCl; refined with C4 symmetry and without symmetry (C1)
# T1 sequence (G0GA88 entry or part of it): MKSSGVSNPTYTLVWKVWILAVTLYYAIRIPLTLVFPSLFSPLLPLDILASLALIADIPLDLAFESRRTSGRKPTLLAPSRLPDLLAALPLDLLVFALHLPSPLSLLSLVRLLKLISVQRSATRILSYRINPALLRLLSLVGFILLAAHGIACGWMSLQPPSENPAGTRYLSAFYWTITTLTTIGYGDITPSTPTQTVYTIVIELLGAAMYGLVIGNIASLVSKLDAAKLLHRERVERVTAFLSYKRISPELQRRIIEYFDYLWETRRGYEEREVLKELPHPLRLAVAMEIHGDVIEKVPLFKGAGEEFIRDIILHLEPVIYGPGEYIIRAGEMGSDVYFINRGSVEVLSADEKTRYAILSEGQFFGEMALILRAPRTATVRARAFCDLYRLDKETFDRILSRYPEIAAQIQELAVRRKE
Compound,Po (SthK),stoichiometry N [1],stoichiometry N [2]
Nc1nc2c(ncn2[C@@H]2O[C@@H]3COP(=O)(O)O[C@H]3[C@H]2O)c(=O)[nH]1 [cGMP],~ 0.003,–,–
"SthK 1-420, cyclic nucleotide-gated potassium channel from Spirochaeta thermophila (natural protein)",–,4,4

# Source: paper PMC6093708, “Ligand discrimination and gating in cyclic nucleotide-gated ion channels from apo and partial agonist-bound cryo-EM structures” (eLife, 2018)
